Molecular target: V5 epitope tagged Sag1p fragment fusion displayed on the cell surface of Pichia pastoris (vectors without insert, s1-V5-SAG1 constructs) (S. cerevisiae) (UniProt P20840)
Test: flow cytometry, FITC anti-V5 staining of plate-grown SuperMan5 cells with GAP and UP promoter constructs (5 isolates each)

Sequence of UniProt P20840 (P20840 331-650): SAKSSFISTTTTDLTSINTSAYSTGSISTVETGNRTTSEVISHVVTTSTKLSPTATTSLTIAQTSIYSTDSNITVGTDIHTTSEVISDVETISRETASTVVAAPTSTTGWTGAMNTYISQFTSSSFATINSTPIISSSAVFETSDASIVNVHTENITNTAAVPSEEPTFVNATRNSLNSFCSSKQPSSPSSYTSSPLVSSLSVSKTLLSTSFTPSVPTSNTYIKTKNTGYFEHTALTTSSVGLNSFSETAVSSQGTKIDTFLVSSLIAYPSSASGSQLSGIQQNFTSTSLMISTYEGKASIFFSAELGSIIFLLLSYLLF

FITC signal against unlabeled cells (orders of magnitude): 2
Substance: FITC-labeled anti-V5 (Abcam, V5-tag-antibody-FITC-ab1209)
